Test results as given in patent publication US20200121783A1.

Biological target: eOD-GT8 60 mer (Aquifex aeolicus; HIV-1)
Assay: ELISA, antibody titration

Row | Substance | EC50 (read off the curve)
1 | VRC01 (antibody) | 0.2 µg/mL
2 | VRC-PG04g1 (v-gene germline revertant of VRC-PG04) (antibody) | 0.5 µg/mL
